According to paper PMC6966528:

Target: mutant E-cadherin-GFP (Y753, 754, 859, and 876 mutated into F) (human) (UniProt P12830)
Experiment: co-IP; lysates of HEK293T cells transiently transfected with WT or mutant E-Cdh-GFP; IP with anti-GFP antibody; Western blot for α- and β-Ctn, densitometry relative to the WT band set to 1

UniProt P12830, sequence (P12830 other isoform, or with tags, fused parts or gaps mutant): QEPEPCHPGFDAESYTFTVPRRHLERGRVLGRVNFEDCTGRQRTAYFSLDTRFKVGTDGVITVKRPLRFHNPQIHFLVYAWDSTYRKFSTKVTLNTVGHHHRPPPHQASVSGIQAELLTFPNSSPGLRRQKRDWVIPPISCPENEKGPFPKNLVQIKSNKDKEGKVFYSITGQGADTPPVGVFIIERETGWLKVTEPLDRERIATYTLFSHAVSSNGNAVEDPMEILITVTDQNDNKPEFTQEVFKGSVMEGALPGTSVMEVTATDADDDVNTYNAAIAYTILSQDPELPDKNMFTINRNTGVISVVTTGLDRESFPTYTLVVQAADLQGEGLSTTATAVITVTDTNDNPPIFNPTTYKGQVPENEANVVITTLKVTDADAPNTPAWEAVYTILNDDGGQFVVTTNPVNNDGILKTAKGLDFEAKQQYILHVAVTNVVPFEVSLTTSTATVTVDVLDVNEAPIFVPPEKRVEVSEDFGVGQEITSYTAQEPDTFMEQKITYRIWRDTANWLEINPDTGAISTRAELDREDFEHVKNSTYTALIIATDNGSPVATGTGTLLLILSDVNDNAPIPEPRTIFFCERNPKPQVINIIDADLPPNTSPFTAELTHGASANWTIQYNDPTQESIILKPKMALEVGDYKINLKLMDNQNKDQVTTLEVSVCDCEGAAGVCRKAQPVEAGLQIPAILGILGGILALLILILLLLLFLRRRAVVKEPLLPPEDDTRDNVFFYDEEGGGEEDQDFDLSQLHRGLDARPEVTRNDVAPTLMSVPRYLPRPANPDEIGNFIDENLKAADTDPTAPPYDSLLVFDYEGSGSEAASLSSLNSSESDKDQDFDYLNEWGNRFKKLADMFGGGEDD

Substance	reduction of co-immunoprecipitation relative to WT E-Cdh-GFP
α-catenin (from UniProt P35221 1-906) (natural protein)	60%
β-catenin (from UniProt P35222 1-781) (natural protein)	60%
